Consider 4 molecules from doi:10.1101/2025.02.16.638571 (bioRxiv, 2025).

The target in the assay is full-length NiVM G on transfected cells (Nipah virus, Malaysia strain (NiVM), UniProt Q9IH62). As to the kind of experiment: flow cytometry on cells. (In general: Flow cytometry measures light scatter and fluorescence of single cells or particles in a stream.)

B1: mAb LN1F9 (antibody, V domains shown)
VH: EVKLVESGGGLVKPGGSLKLSCAASGFSFRNYAMSWVRQSPEKRLEWVAEVSSGGGYTYYPDTVTGRFTISRDNAKNILYLEMSSLRSEDTAMYYCTRDPDSSGYLAWFAYWGQGTLVTVSA
VL: DILLTQSPASLSASVGETVTITCRASENINSYLAWYQQKQGKSPQLLVYNAKTLAEGVPSRFSGSGSDTQFSLKINTLQPEDFGTYYCQHHSGTPYTFGGGTKLEIK
B1: the binding result is “binds”.

B2: mAb S1E2 (antibody, V domains shown)
VH: QMQLQESGPGLVKPSQSLSLTCSVTGYSITSGYYWNWIRQFSGNKLEWMGYINHDGSKNYNPSLKNRISITRDTSKNQFFLKLNSVTTEDTATYYCARDYGSYYYPMDYWGQGTSVTVSS
VL: EIVLTQSPPIMSASPGEKVTITCSASSSVTFMHWFQQKPGTSPKLWIFSTSNLASGVPARFSGSGSGTSYSLTISRMEAEDAATYYCQQRSSYPFTFGSGTKLEIK
Consider B2, for which the binding result is reported as “binds”.

B3: mAb LN3D3 (antibody, V domains shown)
VH: EVKLEESGPELVKPGASVKMSCKASGYTFTNYVMHWVKQKPGQGLEWIGYVNPYNDGTQYNEKFRDKATLTSDKSSSTVYMELNSLTSEDSAVYYCTRGDYPYWVFEVWGAGTTVTVSS
VL: EIQMTQSPATLSVTPGDSVSLSCRASQSISNNLHWYQQKSHESPRLLIKYASQSISGIPSRFSGSGSGTDFTLSINNLETEDFGMYFCQHSDSWPFTFGSGTKLEIK
Consider B3, for which the binding result was “binds”.

B4: mAb S2B10 (antibody, V domains shown)
VH: QMQLQESGPGLVKPSQSLSLTCTVTGYSITSDYAWNWIRQFPRNKLEWMGFITYSGSTSYNPSLKSRISLTRDTSKNQFFLQLSSVTTEDTATYYCARSGANWDWFAYWGQGTLVTVSA
VL: DIQMTQSPASLAVSLGQRATISCRASESVDNYGNSFMHWYQQKPGQPPKLLIYRASKLESGIPARFSGSGSRTDFTLTINPVEADDVATYHCQQSNEDPWTFGGGTKLEIK
Regarding B4, the binding result is reported as “binds”.
